Measurements taken from the supplement of paper PMC9112550, “Optimization of the antimicrobial peptide Bac7 by deep mutational scanning” (BMC Biology, 2022).

System: Escherichia coli TOP10
Test: shrunken log2 fold change of peptide-encoding DNA abundance (4.5 h post-induction vs induction); higher = less antimicrobial activity (less host growth inhibition)
Settings: time post-induction: 4.5 h; library: site-saturation at positions 5, 18, 19, 20
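Further: peptides expressed intracellularly from a pBAD plasmid library in pooled LB shake-flask culture, induced with 0.3% L-arabinose, DNA abundance read by NGS, three biological replicates, DESeq2 with apeglm shrinkage.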

Sequence | shrunken log2 fold change
RRIRSRPPRLPRPRPRPMQTPRP | 0.291
RRIRSRPPRLPRPRPRPMRHPRP | 3.44
RRIRSRPPRLPRPRPRPMSAPRP | 0.202
RRIRSRPPRLPRPRPRPMSEPRP | 0.0489
RRIRSRPPRLPRPRPRPMTVPRP | -0.0124
RRIRSRPPRLPRPRPRPMVDPRP | 0.197
RRIRSRPPRLPRPRPRPMVSPRP | 0.0287
RRIRSRPPRLPRPRPRPMWEPRP | 0.0252
RRIRSRPPRLPRPRPRPMWGPRP | -0.0451
RRIRSRPPRLPRPRPRPMWMPRP | -0.344
RRIRSRPPRLPRPRPRPMWYPRP | -0.0284
RRIRSRPPRLPRPRPRPMYHPRP | -0.762
RRIRSRPPRLPRPRPRPNALPRP | -0.0803
RRIRSRPPRLPRPRPRPNENPRP | -0.118
RRIRSRPPRLPRPRPRPNFAPRP | 0.245
RRIRSRPPRLPRPRPRPNFHPRP | -0.171
RRIRSRPPRLPRPRPRPNFWPRP | 0.0869
RRIRSRPPRLPRPRPRPNGEPRP | 0.0431
RRIRSRPPRLPRPRPRPNHMPRP | -0.236
RRIRSRPPRLPRPRPRPNHQPRP | -0.139
RRIRSRPPRLPRPRPRPNHSPRP | -0.736
RRIRSRPPRLPRPRPRPNKMPRP | -0.05
RRIRSRPPRLPRPRPRPNLGPRP | -0.0959
RRIRSRPPRLPRPRPRPNLNPRP | -0.307
RRIRSRPPRLPRPRPRPNMPPRP | -0.278

Sequence | shrunken log2 fold change
RRIRSRPPRLPRPRPRPNNEPRP | -0.631
RRIRSRPPRLPRPRPRPNPCPRP | -0.574
RRIRSRPPRLPRPRPRPNQFPRP | -0.232
RRIRSRPPRLPRPRPRPNQNPRP | -0.274
RRIRSRPPRLPRPRPRPNSEPRP | -0.262
RRIRSRPPRLPRPRPRPNSLPRP | -0.165
RRIRSRPPRLPRPRPRPNTGPRP | -0.336
RRIRSRPPRLPRPRPRPNVAPRP | -0.0788
RRIRSRPPRLPRPRPRPNVQPRP | -0.335
RRIRSRPPRLPRPRPRPNYFPRP | -0.828
RRIRSRPPRLPRPRPRPNYIPRP | -0.757
RRIRSRPPRLPRPRPRPNYKPRP | -0.546
RRIRSRPPRLPRPRPRPNYYPRP | -0.822
RRIRSRPPRLPRPRPRPPCGPRP | 0.182
RRIRSRPPRLPRPRPRPPCLPRP | -0.105
RRIRSRPPRLPRPRPRPPDWPRP | 0.661
RRIRSRPPRLPRPRPRPPEHPRP | 0.169
RRIRSRPPRLPRPRPRPPEYPRP | -0.154
RRIRSRPPRLPRPRPRPPFYPRP | -0.154
RRIRSRPPRLPRPRPRPPGFPRP | 0.467
RRIRSRPPRLPRPRPRPPGPPRP | 0.64
RRIRSRPPRLPRPRPRPPHRPRP | 0.182
RRIRSRPPRLPRPRPRPPHTPRP | 0.159
RRIRSRPPRLPRPRPRPPMQPRP | 0.268
RRIRSRPPRLPRPRPRPPNNPRP | -0.404

Sequence | shrunken log2 fold change
RRIRSRPPRLPRPRPRPPPTPRP | 0.914
RRIRSRPPRLPRPRPRPPRGPRP | 0.638
RRIRSRPPRLPRPRPRPPTHPRP | 0.197
RRIRSRPPRLPRPRPRPPTSPRP | 0.0457
RRIRSRPPRLPRPRPRPPWAPRP | 0.643
RRIRSRPPRLPRPRPRPPWWPRP | 0.828
RRIRSRPPRLPRPRPRPPYWPRP | 0.3
RRIRSRPPRLPRPRPRPQAGPRP | 0.165
RRIRSRPPRLPRPRPRPQAHPRP | -0.0418
RRIRSRPPRLPRPRPRPQDSPRP | -0.164
RRIRSRPPRLPRPRPRPQDVPRP | -0.277
RRIRSRPPRLPRPRPRPQFRPRP | -0.0597
RRIRSRPPRLPRPRPRPQGDPRP | 0.36
RRIRSRPPRLPRPRPRPQGVPRP | 0.225
RRIRSRPPRLPRPRPRPQGWPRP | 0.469
RRIRSRPPRLPRPRPRPQIGPRP | -1.62
RRIRSRPPRLPRPRPRPQIKPRP | 0.0447
RRIRSRPPRLPRPRPRPQKSPRP | -0.181
RRIRSRPPRLPRPRPRPQKVPRP | -0.203
RRIRSRPPRLPRPRPRPQLAPRP | 0.0789
RRIRSRPPRLPRPRPRPQLDPRP | -0.191
RRIRSRPPRLPRPRPRPQLVPRP | 0.0331
RRIRSRPPRLPRPRPRPQMFPRP | -0.0871
RRIRSRPPRLPRPRPRPQMPPRP | 0.189
RRIRSRPPRLPRPRPRPQMTPRP | -0.0755
